Key:
[1] = Optical properties: excitation/emission maxima and absolute fluorescence quantum yield; type: physicochemical
Procedure: A dual-beam UV-VIS spectrophotometer (Lambda 40, Perkin Elmer) was used to determine the absorbance (Abs) of the compounds of the invention. Emission/excitation (Em/Ex) spectra and absolute fluorescence quantum yield (ϕ) measurements were carried out on a spectrofluorometer (FluoroLog-3 1IHR-320, Horiba Jobin Yvon) equipped with an F-3018 integrating sphere accessory. The measurements were performed using an excitation wavelength at maximum absorbance of different dyes, and the sample was excited with a 450 W Xenon Light Source. Detection was performed by photomultiplier tubes (PMT-NIR) cooled detector or by TBX-04 detector. Dye solutions were carefully prepared to have an absorbance lower than 0.1 (optical densities) to minimize re-absorption phenomena.
The compounds of the invention have been characterized in terms of their optical properties in vitro in aqueous medium (i.e., water/PBS pH 7.4) and in a clinical chemistry control serum (Seronorm, Sero SA), mimicking the chemical composition and optical properties of human serum. All dye or dye-conjugate solutions were freshly prepared. ICG and S0456 were used as commercial references.
In particular, the excitation and emission maxima and the absolute fluorescence quantum yield (Φ) of representative compounds of formula (I) and conjugates of formula (II) are shown in Table II.

[2] = biological target: T1, human serum albumin (HSA) (Homo sapiens, UniProt P02768); experiment: Binding affinity to human serum albumin (absorbance peak shift or ultrafiltration method)
T1 construct: purchased Sigma Aldrich A9511
T1 sequence (P02768 25-609): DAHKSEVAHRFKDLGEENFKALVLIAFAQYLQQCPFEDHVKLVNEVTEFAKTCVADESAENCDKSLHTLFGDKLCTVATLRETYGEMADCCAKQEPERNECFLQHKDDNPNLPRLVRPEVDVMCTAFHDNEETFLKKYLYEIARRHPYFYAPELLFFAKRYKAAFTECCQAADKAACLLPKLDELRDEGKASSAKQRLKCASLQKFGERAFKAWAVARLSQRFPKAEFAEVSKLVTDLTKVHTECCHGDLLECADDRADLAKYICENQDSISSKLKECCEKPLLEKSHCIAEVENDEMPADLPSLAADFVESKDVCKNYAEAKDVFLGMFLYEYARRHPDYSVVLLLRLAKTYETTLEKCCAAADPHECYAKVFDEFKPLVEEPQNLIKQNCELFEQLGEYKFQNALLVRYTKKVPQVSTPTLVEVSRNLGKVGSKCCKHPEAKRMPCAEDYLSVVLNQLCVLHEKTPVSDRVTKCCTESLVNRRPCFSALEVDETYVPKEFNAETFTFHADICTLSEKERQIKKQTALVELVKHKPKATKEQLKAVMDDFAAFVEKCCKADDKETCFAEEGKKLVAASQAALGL
Procedure: An analysis of the binding affinity of the compounds of the invention to human albumin was carried out and the results compared with ICG and […] as a reference. Binding affinity to human serum albumin (HSA; Sigma Aldrich, A9511) was measured using two methods, according to the level of binding affinity of the compounds. The first method, optimal for compounds which strongly interact with HSA, is based on the analysis of the absorbance spectrum peak shift after the incubation of the dye in solutions containing HSA. […] The measure was performed at the maximum absorbance wavelength of the shifted peak. The second method, optimal for compound with low affinity for HSA, is based on measuring the variation of the absorbance of solutions containing the dye and various concentrations of HSA after ultrafiltration. […] In the first method, ΔA/b corresponds to the absorbance measured for each sample, whereas in the second method ΔA/b is obtained subtracting the absorbance of the control sample (dye without HSA) to the absorbance of each other sample.

[3] = biological target: T2, human recombinant integrin αvβ3 (Homo sapiens, UniProt P05106+P06756); experiment: Receptor binding affinity ELISA (Vitronectin-coated plates); conditions: duplicate, read-out: Receptor affinity (IC50, nM ± St. Dev.)
T2 construct: purchased R&D Systems
T2 sequence (P06756 31-992 limits assumed): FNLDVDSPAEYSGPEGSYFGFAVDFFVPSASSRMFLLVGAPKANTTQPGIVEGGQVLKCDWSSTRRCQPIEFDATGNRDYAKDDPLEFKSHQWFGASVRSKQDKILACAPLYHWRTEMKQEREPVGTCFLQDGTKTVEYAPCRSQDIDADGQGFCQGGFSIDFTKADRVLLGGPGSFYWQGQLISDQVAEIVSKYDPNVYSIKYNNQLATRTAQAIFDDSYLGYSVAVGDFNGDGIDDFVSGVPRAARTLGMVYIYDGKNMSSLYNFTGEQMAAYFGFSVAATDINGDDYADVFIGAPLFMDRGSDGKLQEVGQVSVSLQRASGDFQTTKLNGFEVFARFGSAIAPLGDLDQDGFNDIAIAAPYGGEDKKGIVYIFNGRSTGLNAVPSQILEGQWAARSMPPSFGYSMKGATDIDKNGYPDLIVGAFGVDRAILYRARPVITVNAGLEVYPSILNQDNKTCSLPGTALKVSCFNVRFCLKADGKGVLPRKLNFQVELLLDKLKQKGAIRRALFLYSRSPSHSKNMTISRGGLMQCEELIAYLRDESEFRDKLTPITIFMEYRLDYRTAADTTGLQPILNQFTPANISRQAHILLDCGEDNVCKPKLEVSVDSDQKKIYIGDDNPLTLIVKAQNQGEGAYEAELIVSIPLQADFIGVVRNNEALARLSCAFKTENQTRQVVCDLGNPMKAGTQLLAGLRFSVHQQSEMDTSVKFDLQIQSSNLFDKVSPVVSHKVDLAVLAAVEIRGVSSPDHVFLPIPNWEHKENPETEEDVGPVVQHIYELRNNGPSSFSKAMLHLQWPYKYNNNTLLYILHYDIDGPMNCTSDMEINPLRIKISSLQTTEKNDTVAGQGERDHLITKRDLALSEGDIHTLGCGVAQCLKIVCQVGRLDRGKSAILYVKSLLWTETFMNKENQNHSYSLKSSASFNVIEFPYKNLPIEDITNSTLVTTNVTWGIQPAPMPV
T2 sequence (P05106 27-718 limits assumed): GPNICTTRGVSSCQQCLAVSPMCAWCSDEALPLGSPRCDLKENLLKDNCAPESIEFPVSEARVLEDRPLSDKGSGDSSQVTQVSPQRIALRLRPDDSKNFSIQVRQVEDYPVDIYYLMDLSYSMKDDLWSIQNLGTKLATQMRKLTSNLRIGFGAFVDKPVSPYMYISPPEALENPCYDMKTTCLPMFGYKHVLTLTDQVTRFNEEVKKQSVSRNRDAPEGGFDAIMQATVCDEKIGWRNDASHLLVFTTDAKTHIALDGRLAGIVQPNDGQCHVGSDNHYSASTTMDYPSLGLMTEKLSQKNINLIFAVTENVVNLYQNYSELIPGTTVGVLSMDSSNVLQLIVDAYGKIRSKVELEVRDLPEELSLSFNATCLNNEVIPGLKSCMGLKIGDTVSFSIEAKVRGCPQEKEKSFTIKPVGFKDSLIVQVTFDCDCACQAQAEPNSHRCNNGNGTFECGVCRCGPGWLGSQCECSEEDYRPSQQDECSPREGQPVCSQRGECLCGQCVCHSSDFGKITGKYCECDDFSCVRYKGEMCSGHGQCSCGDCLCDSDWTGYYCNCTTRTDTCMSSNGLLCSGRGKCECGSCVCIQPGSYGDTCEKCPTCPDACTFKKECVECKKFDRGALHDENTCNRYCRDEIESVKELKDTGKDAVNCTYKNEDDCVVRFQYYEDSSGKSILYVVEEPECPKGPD
Procedure: Briefly, 96-well ELISA plates were coated overnight at 4° C. with the extracellular matrix (ECM) protein Vitronectin in carbonate buffer (15 mM Na2CO3, 35 mM NaHCO3, pH 9.6). Each well was then washed with PBS-T-buffer (phosphate-buffered saline/Tween20, 137 mM NaCl, 2.7 mM KCl, 10 mM Na2HPO4, 2 mM KH2PO4, 0.01% Tween20, pH 7.4) and blocked for 1 h at RT with TS-B-buffer (Tris-saline/BSA buffer; 20 mM Tris-HCl, 150 mM NaCl, 1 mM CaCl2, 1 mM MgCl2, 1 mM MnCl2, pH 7.5, 1% BSA). In the meantime, a dilution series of the compound and internal standard was prepared in an extra plate. After washing the assay plate three times with PBS-T, 50 μL of the dilution series were transferred to each well. 50 μL of a solution of human recombinant integrin αvβ3 (R&D Systems, 1 μg/mL) in TS-B-buffer was transferred to the wells and incubated for 1 h. The plate was washed three times with PBS-T buffer, and then primary antibody anti-αvβ3 was added to the plate. After incubation and washing three times with PBS-T, the secondary anti-IgG peroxidase-labeled antibody was added to the plate and incubated for 1 h. After washing the plate three times with PBS-T, the plate was developed by quick addition of 3,3′,5,5′-tetrametylbenzidine (TMB) and incubated for 5 min in the dark. The reaction was stopped with 3 M H2SO4, and the absorbance was measured at 450 nm with a plate reader (Victor3, Perkin Elmer).
The IC50 of the representative Compounds 1, 2 and 4 was tested in duplicate, and the resulting inhibition curves were analyzed using GraphPad Prism version 4.0 for Windows (GraphPad Software). The inflection point defines the IC50 value.

[4] = test system: WM-266-4 human melanoma cells; experiment: Cell uptake by FACS in presence of human serum; type: cell-based; conditions: WM-266-4 cells; fluorescence intensity in absence of serum = 100%
Procedure: The human melanoma cell line WM-266-4 (ATCC, CRL-1676) was used as in vitro model to assess the cell uptake of representative integrin-binding Compounds 1, 2 and 4, based on the high expression of the integrin receptors, particularly αvβ3, on the membrane of these cells (Capasso et al., PlosOne 2014).
Adherent cells at about 70% confluence were incubated with the Compounds 1 or 3 (1 μM) for 2 h at 37° C. (5% CO2) in presence of Dulbecco's Modified Eagle's Medium (DMEM) supplemented with 10% FBS, 2 mM glutamine, 100 IU/mL penicillin and 100 μg/mL streptomycin. […] Fluorescence Activated Cell Sorting (FACS) was used to detect the fluorescence signal within the cells, as measure of cell uptake. Samples were excited with an Argon laser and the emission detected using a 670 nm longpass filter. Values of fluorescence intensity were obtained from the histogram statistic produced by the instrument software.
The residual internalization was calculated by considering the value of fluorescence intensity in absence of the competitor as 100%.
Furthermore, to assess the effect of biological fluids on the cell uptake, parallel experiments were performed incubating the cells with a compounds of the invention in presence of human serum from male AB plasma (Sigma Aldrich, H4522). The residual internalization was calculated by considering the value of fluorescence intensity in absence of the serum as 100%. […]

[5] = test system: human pharyngeal carcinoma cells Detroit-562; experiment: Tumor uptake in animal model of human head and neck cancer (orthotopic), ex vivo optical imaging; conditions: ex vivo anterior vs posterior tongue, 24 h after i.v. 3 nmol/mouse, H&N tumor bearing mice, n = 5/group
Procedure: Tumor uptake experiments were performed in an animal model of human head and neck cancer (orthotopic), using Detroit-562 cells, overexpressing in particular integrin receptor αvβ6. Briefly, the human pharyngeal carcinoma cells Detroit-562 (ATCC, CCL-138) were cultured in Eagle's Minimum Essential Medium (EMEM) supplemented with 10% Fetal Bovine Serum (FBS), 2 mM glutamine, 100 IU/mL penicillin, 100 μg/mL streptomycin. Male Balb/c nu/nu mice, 4-6 weeks of age (Charles River Laboratories), underwent orthotopic implantation in the anterior portion of the tongue of about 2.5 million cells suspended in 0.03 mL di EMEM. Mice were housed 4 per cage with food and water ad libitum. Animals were fed with VRF1 (P) sterile diet (Special Diets Services Ltd) up to the end of the acclimation period (5 days). Then, AIN-76a rodent diet irradiated (Research Diets), a special diet that reduces auto-fluorescence, was used up to the end of the experiments. Tumor growth was monitored by longitudinal assessments using a caliper up to the target size of 10-20 mm^3 (7-10 days after cell implantation).
Imaging experiments were performed using the preclinical optical system IVIS Spectrum (Perkin Elmer). Animals were intravenously injected (lateral tail vein) with 3 nmol/mouse, at 24 hours post-administration were euthanized by anesthesia overdose, and the tongues were excised for ex vivo optical imaging. […]

[6] = test system: human colorectal adenocarcinoma cells HT-29; experiment: Tumor uptake in animal model of human colorectal cancer (subcutaneous), ex vivo optical imaging; conditions: ex vivo tumor-to-muscle, 24 h after i.v. administration, colorectal cancer bearing mice, n = 5/group
Procedure: Tumor uptake experiments were performed in an animal model of human colorectal cancer (subcutaneous), using HT-29 cells, expressing low levels of integrin receptors. Briefly, the human colorectal adenocarcinoma cells HT-29 (ATCC, HTB-38) were cultured in McCoy's 5 A medium supplemented with 10% foetal bovine serum, 2 mM glutamine, 100 IU/mL penicillin and 100 μg/mL streptomycin. Male Athymic nude mice, 4-6 weeks of age (Envigo), underwent subcutaneous implantation (right flank) of about 5 million cells suspended in 0.1 mL of serum-free medium. Mice were housed 4 per cage with food and water ad libitum. […] Then, AIN-76a rodent diet irradiated (Research Diets), a special diet that reduces auto-fluorescence, was used up to the end of the experiments. Tumor growth was monitored by longitudinal assessments using a caliper up to the target size of 300-600 mm^3 (3-4 weeks after cell implantation). […]
In vivo imaging was performed under gas anesthesia (Sevofluorane 6-8% in oxygen). […] Regions of interest (ROIs) were drawn on the excised tumor and healthy reference tissue (muscle) to evaluate signal intensity (expressed as Average Radiant Efficiency). The ratio between the fluorescence signal in the tumor and in the muscle (background tissue) was then calculated to assess the tumor-to-background ratio (TBR).

[7] = test system: human glioblastoma U87MG cells; experiment: Tumor uptake in animal model of human glioblastoma (subcutaneous), ex vivo optical imaging; conditions: ex vivo tumor-to-muscle, 24 h after i.v. administration, glioblastoma tumor bearing mice, n = 5/group
Procedure: Tumor uptake experiments were carried out in an animal model of human glioblastoma (subcutanous) overexpressing the integrin receptors, particularly αvβ3. Briefly, human glioblastoma U87MG cells (ATCC, HTB-14) were cultured in Eagle's Minimum Essential Medium (EMEM) supplemented with 10% Fetal Bovine Serum (FBS), 2 mM glutamine, 100 IU/mL penicillin, 100 μg/mL streptomycin. Male Balb/c nu/nu mice, 4-6 weeks of age (Charles River Laboratories), underwent subcutaneous implantation (right flank) of about 10 million cells suspended in 0.1 mL of EMEM. Mice were housed 4 per cage with food and water ad libitum. Animals were fed with VRF1 (P) sterile diet (Special Diets Services Ltd) up to the end of the acclimation period (5 days). Then, AIN-76a rodent diet irradiated (Research Diets), a special diet that reduces auto-fluorescence, was used up to the end of the experiments. Tumor growth was monitored by longitudinal assessments using a caliper up to the target size of 300-600 mm^3 (3-4 weeks after cell implantation). […] Regions of interest (ROIs) were drawn on the excised tumor and healthy muscle tissues to evaluate signal intensity (expressed as Average Radiant Efficiency). The ratio between the fluorescence signal in the tumor and in the muscle (background tissue) was then calculated to assess the contrast.

[8] = Seronorm (clinical chemistry control serum)

Structure (SMILES)	Max Em (emission maximum) ([1]; PBS pH 7.4) [nm]	Max Ex (excitation maximum) ([1]; PBS pH 7.4) [nm]	Φ (absolute fluorescence quantum yield) ([1]; PBS pH 7.4) [%]	Φ (absolute fluorescence quantum yield) [1, 8] [%]	Kd [2] [nM]	IC50 [3] [nM]	Residual cell uptake in presence of human serum [4] [%]	Tumor-to-background ratio (mean ± St. Dev) [5]	Tumor-to-background ratio (mean ± St. Dev) [6]	Tumor-to-background ratio (mean ± St. Dev) [7]
CC1(C)C(/C=C/C2=C(Oc3ccc(S(=O)(=O)O)cc3)C(=C/C=C3/N(CCCCCC(=O)NCCCCC4NC(=O)[C@@H](Cc5ccccc5)NC(=O)[C@H](CC(=O)O)NC(=O)CNC(=O)[C@H](CCCNC(=N)N)NC4=O)c4ccc(C(=O)NCC(O)C(O)C(O)C(O)CO)cc4C3(C)C)/CCC2)=[N+](CCCCS(=O)(=O)[O-])c2ccc(C(=O)NCC(O)C(O)C(O)C(O)CO)cc21 (some centres unmarked) [Compound 2]	805	783	6.1	7.5	38200	1.64 ± 0.41	90	2.26 ± 0.10	4.20 ± 0.80	
CC1(C)C(/C=C/C2=C(c3ccc(CCC(=O)NCCCCC4NC(=O)[C@@H](Cc5ccccc5)NC(=O)[C@H](CC(=O)O)NC(=O)CNC(=O)[C@H](CCCNC(=N)N)NC4=O)cc3)C(=C/C=C3/N(CCCCS(=O)(=O)O)c4ccc(C(=O)NCC(O)C(O)C(O)C(O)CO)cc4C3(C)C)/CCC2)=[N+](CCCCS(=O)(=O)[O-])c2ccc(C(=O)NCC(O)C(O)C(O)C(O)CO)cc21 (some centres unmarked) [Compound 1]	788	771	4.4	10.9		2.73 ± 0.5		2.27 ± 0.50	4.30 ± 1.50	6.92 ± 0.64
